Where no end group is shown, it is not given here.
T1: wild-type rat NK2R receptor of tachykinins (construct pCEP4-NK2R), expressed on HEK 293 cells (rat, UniProt P16610 1-390)
T1 construct: whole, on cells; Stably expressed in HEK 293 cells; also called NK2R-WT; NK2R WT
T1 sequence (looked up): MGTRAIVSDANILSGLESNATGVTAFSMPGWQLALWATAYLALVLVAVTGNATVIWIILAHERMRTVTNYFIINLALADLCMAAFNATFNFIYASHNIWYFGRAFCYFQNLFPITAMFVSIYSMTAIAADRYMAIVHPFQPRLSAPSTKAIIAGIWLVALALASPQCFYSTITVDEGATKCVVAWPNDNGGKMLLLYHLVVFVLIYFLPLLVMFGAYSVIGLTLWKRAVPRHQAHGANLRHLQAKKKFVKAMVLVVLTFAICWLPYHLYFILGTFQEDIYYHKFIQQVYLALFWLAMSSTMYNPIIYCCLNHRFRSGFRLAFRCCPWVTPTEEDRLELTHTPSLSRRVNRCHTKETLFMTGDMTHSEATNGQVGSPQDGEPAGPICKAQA


Columns and labels:
[1] = target: fluorescent receptor NK2R-RF1 (construct pCEP4-NK2R-RF1): EGFP fused between the alpha7 signal peptide and the amino-terminal end of the rat NK2R receptor, expressed on HEK 293 cells (Aequorea victoria; rat) (UniProt P16610); test: displacement of 3H SR 48968 on HEK 293 cells expressing NK2R-RF1, filtration
[2] = target: wild-type rat NK2R receptor of tachykinins (construct pCEP4-NK2R), expressed on HEK 293 cells (rat) (UniProt P16610); test: displacement of 3H SR 48968 on HEK 293 cells expressing wild-type NK2R, filtration
[3] = target: fluorescent receptor NK2R-RF1 (construct pCEP4-NK2R-RF1): EGFP fused between the alpha7 signal peptide and the amino-terminal end of the rat NK2R receptor, expressed on HEK 293 cells (Aequorea victoria; rat) (UniProt P16610); test: displacement of 3H SR 48968 on HEK 293 cells expressing NK2R-RF1, filtration (FIG. 8b)
[4] = target: fluorescent receptor NK2R-RF1 (construct pCEP4-NK2R-RF1): EGFP fused between the alpha7 signal peptide and the amino-terminal end of the rat NK2R receptor, expressed on HEK 293 cells (Aequorea victoria; rat) (UniProt P16610); test: FRET saturation on cells expressing NK2R-RF1, 0 to 256 nM NKA BO I
[5] = target: T1, wild-type rat NK2R receptor of …; test: displacement of 3H SR 48968 on HEK 293 cells expressing NK2R-WT, filtration (FIG. 8a)
Description: The incubation is carried out for one hour at 4° C. Filtration is carried out at the end of incubation, as described in 3b).

[6] = target: fluorescent receptor NK2R-RF1 (construct pCEP4-NK2R-RF1): EGFP fused between the alpha7 signal peptide and the amino-terminal end of the rat NK2R receptor, expressed on HEK 293 cells (Aequorea victoria; rat) (UniProt P16610); test: FRET saturation: amplitude of EGFP fluorescence extinction against NKA BO I concentration, cells expressing NK2R-RF1 (FIG. 13)

Molecule	Ki [1] [µM]	Ki [2] [µM]	Ki [3] [µM]	Kd [4] [µM]	Ki [5] [µM]	Kd [6] [µM]
MEN 10,376 (Bachem) (peptide)	0.061	0.053	–	–	–	–
neurokinin A (from UniProt P20366 98-107) (peptide)	–	–	0.0021	–	–	–
HKTDSFVGLM (peptide, UniProt P20366 98-107, looked up, also: BODIPY 530/550 IA label, site not given here, mature; HPLC-purified reaction product of NKA with BODIPY 530/550 IA; also called NKA BO 1; NKA-Bodipy derivative) [NKA BO I (neurokinin A labeled with BODIPY 530/550 IA)]	–	–	0.0161	0.02 to 0.03	0.0161	0.024

Source: patent US20060275828A1 (CENTRE NATIONAL DE LA RECHERCHE SCIENTIFIQUE, published 2006)
